The values that follow come from US20220332848A1 (published 2022).

In test [1] the target is human CTLA-4 (human, UniProt P16410 36-223). The test is described as follows: FACS binding CHO-K1 cells expressing human CTLA-4. Background: Flow cytometry measures light scatter and fluorescence of single cells or particles in a stream.
Test [2] addresses CD47 (UniProt Q08722 19-323). The test is described as follows: FACS.

Chain of CD47 (Q08722 19-323): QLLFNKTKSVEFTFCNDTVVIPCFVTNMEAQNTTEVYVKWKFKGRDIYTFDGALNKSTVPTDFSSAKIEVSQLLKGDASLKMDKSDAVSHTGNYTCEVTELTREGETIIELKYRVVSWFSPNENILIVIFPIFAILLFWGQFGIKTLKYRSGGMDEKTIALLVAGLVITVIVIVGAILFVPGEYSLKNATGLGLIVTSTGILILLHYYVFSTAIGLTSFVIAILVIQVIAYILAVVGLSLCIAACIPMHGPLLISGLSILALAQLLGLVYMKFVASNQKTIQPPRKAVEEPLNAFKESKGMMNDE
Chain of human CTLA-4 (P16410 36-223): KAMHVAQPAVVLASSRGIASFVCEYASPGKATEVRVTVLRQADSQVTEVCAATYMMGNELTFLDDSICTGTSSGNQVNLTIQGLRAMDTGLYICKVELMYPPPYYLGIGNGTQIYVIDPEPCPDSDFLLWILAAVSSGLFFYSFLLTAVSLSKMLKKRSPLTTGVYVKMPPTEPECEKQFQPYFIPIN

B1: bispecific antibody CTLA4-G9-LN (bispecific antibody)
light: EVQLVESGGGLVQPGGSLRLSCAASGYTYSRHCLGWFRQAPGKGREAVSTIDSDGSTSYADSVKGRFTISRDNAKNTLYLQMNSLRPEDTAVYYCAIGPNPRYCSGAPNTRGAEHYFGYWGQGTLVTVSSGGGGSGGGSEIVLTQSPATLSLSPGERATLSCRASENVGTYISWYQQKPGQAPRLLIYGASNRYTGIPARFSGSGSGTDFTLTISSLEPEDFAVYYCGESYGHLYTFGGGTKVEIKRTVAAPSVFIFPPSDEQLKSGTASVVCLLNNFYPREAKVQWKVDNALQSGNSQESVTEQDSKDSTYSLSSTLTLSKADYEKHKVYACEVTHQGLSSPVTKSFNRGEC
heavy: not shown
In the case of B1, the EC50 (commonly the concentration at which the effect is half-maximal) in test [1] worked out at 3.59 nM. This counts as single-digit nanomolar.

B2: bispecific antibody CTLA4-E-HN (bispecific antibody)
heavy: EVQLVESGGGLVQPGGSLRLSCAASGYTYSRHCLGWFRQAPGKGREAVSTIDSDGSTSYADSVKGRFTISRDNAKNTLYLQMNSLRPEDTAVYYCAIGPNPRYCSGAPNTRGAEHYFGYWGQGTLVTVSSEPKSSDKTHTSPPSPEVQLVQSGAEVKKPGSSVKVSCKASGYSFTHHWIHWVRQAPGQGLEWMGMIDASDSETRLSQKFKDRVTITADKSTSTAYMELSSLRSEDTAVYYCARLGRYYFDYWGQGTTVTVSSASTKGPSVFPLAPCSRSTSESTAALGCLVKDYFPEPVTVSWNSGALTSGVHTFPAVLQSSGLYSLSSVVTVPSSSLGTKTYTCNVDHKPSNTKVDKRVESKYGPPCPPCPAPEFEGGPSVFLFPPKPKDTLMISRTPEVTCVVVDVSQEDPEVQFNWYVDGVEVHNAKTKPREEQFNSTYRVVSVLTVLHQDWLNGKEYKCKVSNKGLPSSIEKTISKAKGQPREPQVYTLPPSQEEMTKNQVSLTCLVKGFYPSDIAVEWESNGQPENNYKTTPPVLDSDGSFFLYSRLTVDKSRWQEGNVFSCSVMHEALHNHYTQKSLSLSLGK
light: EIVLTQSPATLSLSPGERATLSCRASENVGTYISWYQQKPGQAPRLLIYGASNRYTGIPARFSGSGSGTDFTLTISSLEPEDFAVYYCGESYGHLYTFGGGTKVEIKRTVAAPSVFIFPPSDEQLKSGTASVVCLLNNFYPREAKVQWKVDNALQSGNSQESVTEQDSKDSTYSLSSTLTLSKADYEKHKVYACEVTHQGLSSPVTKSFNRGEC
As to B2, the EC50 in test [2] was determined as 2.3 nM; in test [1], 3.61 nM.

B3: bispecific antibody CTLA4-G15-HC (bispecific antibody)
heavy: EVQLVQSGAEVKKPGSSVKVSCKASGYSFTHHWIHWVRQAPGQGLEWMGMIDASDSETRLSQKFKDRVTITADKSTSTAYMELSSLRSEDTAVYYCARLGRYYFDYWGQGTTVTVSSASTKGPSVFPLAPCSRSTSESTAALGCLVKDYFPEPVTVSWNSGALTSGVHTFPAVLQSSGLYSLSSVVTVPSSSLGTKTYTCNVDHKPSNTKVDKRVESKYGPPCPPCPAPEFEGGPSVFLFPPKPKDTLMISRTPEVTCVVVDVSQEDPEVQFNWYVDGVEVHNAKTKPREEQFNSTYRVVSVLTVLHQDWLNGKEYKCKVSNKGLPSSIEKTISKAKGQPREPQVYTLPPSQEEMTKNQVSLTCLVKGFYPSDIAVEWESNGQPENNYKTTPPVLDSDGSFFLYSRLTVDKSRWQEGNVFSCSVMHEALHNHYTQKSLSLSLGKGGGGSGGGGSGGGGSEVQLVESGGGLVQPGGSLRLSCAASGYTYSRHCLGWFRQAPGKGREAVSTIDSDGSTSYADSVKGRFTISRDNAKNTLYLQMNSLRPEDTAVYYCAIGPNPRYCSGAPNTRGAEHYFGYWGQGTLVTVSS
light: EIVLTQSPATLSLSPGERATLSCRASENVGTYISWYQQKPGQAPRLLIYGASNRYTGIPARFSGSGSGTDFTLTISSLEPEDFAVYYCGESYGHLYTFGGGTKVEIKRTVAAPSVFIFPPSDEQLKSGTASVVCLLNNFYPREAKVQWKVDNALQSGNSQESVTEQDSKDSTYSLSSTLTLSKADYEKHKVYACEVTHQGLSSPVTKSFNRGEC
B3: the EC50 turned out to be 1.63 nM in test [2] and 6.22 nM in test [1].

B4: bispecific antibody CTLA4-E-HC (bispecific antibody)
heavy: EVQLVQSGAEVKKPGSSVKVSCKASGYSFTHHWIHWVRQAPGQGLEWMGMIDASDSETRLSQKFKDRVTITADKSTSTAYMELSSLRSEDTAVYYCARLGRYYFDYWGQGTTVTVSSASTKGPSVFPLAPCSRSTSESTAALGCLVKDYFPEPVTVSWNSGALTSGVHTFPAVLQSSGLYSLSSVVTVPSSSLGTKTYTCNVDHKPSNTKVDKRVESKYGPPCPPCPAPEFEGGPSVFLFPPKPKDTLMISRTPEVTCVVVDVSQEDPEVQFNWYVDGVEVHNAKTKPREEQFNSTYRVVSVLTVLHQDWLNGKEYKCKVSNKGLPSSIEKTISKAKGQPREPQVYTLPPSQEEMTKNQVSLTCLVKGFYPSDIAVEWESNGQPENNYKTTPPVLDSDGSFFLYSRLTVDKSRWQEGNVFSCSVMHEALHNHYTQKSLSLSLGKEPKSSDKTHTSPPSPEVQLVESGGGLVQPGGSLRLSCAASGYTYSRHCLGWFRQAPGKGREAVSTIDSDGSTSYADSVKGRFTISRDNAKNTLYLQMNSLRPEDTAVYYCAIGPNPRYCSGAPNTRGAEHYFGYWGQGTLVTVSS
light: EIVLTQSPATLSLSPGERATLSCRASENVGTYISWYQQKPGQAPRLLIYGASNRYTGIPARFSGSGSGTDFTLTISSLEPEDFAVYYCGESYGHLYTFGGGTKVEIKRTVAAPSVFIFPPSDEQLKSGTASVVCLLNNFYPREAKVQWKVDNALQSGNSQESVTEQDSKDSTYSLSSTLTLSKADYEKHKVYACEVTHQGLSSPVTKSFNRGEC
For the molecule B4, the values for the EC50 in test [2] and in test [1] were 1.57 nM and 7.05 nM, respectively.

B5: bispecific antibody CTLA4-G15-HN (bispecific antibody)
heavy: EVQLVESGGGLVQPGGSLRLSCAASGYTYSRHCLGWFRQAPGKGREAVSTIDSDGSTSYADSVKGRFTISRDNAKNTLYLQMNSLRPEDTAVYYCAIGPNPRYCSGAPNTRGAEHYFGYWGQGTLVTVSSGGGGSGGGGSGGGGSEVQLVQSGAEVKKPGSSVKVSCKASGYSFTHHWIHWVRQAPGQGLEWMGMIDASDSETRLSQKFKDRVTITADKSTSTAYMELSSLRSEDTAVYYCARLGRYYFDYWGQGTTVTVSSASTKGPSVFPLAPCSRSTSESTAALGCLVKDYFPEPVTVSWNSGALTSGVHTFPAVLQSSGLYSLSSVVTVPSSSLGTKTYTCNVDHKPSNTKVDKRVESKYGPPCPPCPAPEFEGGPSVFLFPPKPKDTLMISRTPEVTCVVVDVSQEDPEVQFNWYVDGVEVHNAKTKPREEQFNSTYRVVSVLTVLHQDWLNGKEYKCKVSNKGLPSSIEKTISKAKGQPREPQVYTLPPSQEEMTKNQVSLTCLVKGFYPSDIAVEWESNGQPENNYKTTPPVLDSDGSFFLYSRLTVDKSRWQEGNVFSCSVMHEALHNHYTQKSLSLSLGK
light: EIVLTQSPATLSLSPGERATLSCRASENVGTYISWYQQKPGQAPRLLIYGASNRYTGIPARFSGSGSGTDFTLTISSLEPEDFAVYYCGESYGHLYTFGGGTKVEIKRTVAAPSVFIFPPSDEQLKSGTASVVCLLNNFYPREAKVQWKVDNALQSGNSQESVTEQDSKDSTYSLSSTLTLSKADYEKHKVYACEVTHQGLSSPVTKSFNRGEC
In the case of B5, the values for the EC50 in test [2] and in test [1] were 1.81 nM and 2.93 nM, respectively.

B6: anti-CD47 monoclonal antibody (mAb) (antibody, V domains shown)
VH: EVQLVQSGAEVKKPGSSVKVSCKASGYSFTHHWIHWVRQAPGQGLEWMGMIDASDSETRLSQKFKDRVTITADKSTSTAYMELSSLRSEDTAVYYCARLGRYYFDYWGQGTTVTVSS
VL: EIVLTQSPATLSLSPGERATLSCRASENVGTYISWYQQKPGQAPRLLIYGASNRYTGIPARFSGSGSGTDFTLTISSLEPEDFAVYYCGESYGHLYTFGGGTKVEIKR
For the molecule B6, the EC50 in test [2] is 0.905 nM; in test [1] it was about 3.2 nM.
